Assay results taken from publication PMC11881899, “Structural insights into promoter-proximal pausing of RNA polymerase II at +1 nucleosome”.

Legend:
[1] = biological target: RNA polymerase II (RNAPII);DSIF (SPT4/SPT5) (Sus scrofa;human, UniProt A0A8D1DPV6;A0A4X1TVZ5;P19387;O15514;A0A4X1VTX4;P61218;P62487;P52434;P36954;P6287 …, |); experiment: EMSA; 0.1 uM RNAPII, 0.4 uM DSIF; lower mobility than RNAPII-only EC; EMSA: 20 mM Hepes-NaOH pH 7.5, 5 mM MgCl2, 5% glycerol (buffer J); final 75 mM NaCl, 50 mM KOAc, 0.33 uM Zn(OAc)2, 4 uM ZnCl2; 30 min at 4 C; native 3-8% Tris-acetate PAGE; details: protein: native;recombinant; tags: none;N-His SPT4 (His tag TEV-cleaved); C-Strep SPT5; copies: 1;1;1;1;1;1;1;1;1;1;1;1;1;1; label: Alexa Fluor 647 on primer RNA; template DNA, nontemplate DNA and primer RNA
[2] = biological target: RNA polymerase II (RNAPII);DSIF (SPT4/SPT5);NELF 3E mutant (Sus scrofa;human;human, UniProt A0A8D1DPV6;A0A4X1TVZ5;P19387;O15514;A0A4X1VTX4;P61218;P62487;P52434;P36954;P6287 …, ||K23E;K27E;K34E); experiment: EMSA; 0.1 uM RNAPII, 0.4 uM DSIF, 0.4 uM NELF 3E; complex forms similar to wild type; EMSA: 20 mM Hepes-NaOH pH 7.5, 5 mM MgCl2, 5% glycerol (buffer J); final 75 mM NaCl, 50 mM KOAc, 0.33 uM Zn(OAc)2, 4 uM ZnCl2; 30 min at 4 C; native 3-8% Tris-acetate PAGE; details: protein: native;recombinant;recombinant; tags: none;N-His SPT4 (His tag TEV-cleaved); C-Strep SPT5;NELF-C C-His6; NELF-E N-FLAG; copies: 1;1;1;1;1;1;1;1;1;1;1;1;1;1;1;1;1;1; label: Alexa Fluor 647 on primer RNA; template DNA, nontemplate DNA and primer RNA
[3] = biological target: RNA polymerase II (RNAPII);DSIF (SPT4/SPT5);NELF wild type (NELF-A/B/C/E) (Sus scrofa;human;human, UniProt A0A8D1DPV6;A0A4X1TVZ5;P19387;O15514;A0A4X1VTX4;P61218;P62487;P52434;P36954;P6287 …, ||); experiment: EMSA; 0.1 uM RNAPII, 0.4 uM DSIF, 0.4 uM NELF; complete shift; EMSA: 20 mM Hepes-NaOH pH 7.5, 5 mM MgCl2, 5% glycerol (buffer J); final 75 mM NaCl, 50 mM KOAc, 0.33 uM Zn(OAc)2, 4 uM ZnCl2; 30 min at 4 C; native 3-8% Tris-acetate PAGE; details: protein: native;recombinant;recombinant; tags: none;N-His SPT4 (His tag TEV-cleaved); C-Strep SPT5;NELF-C C-His6; NELF-E N-FLAG; copies: 1;1;1;1;1;1;1;1;1;1;1;1;1;1;1;1;1;1; label: Alexa Fluor 647 on primer RNA; template DNA, nontemplate DNA and primer RNA
[4] = biological target: RNA polymerase II (RNAPII) (Sus scrofa); experiment: EMSA; 0.1 uM RNAPII; RNAPII-only EC; EMSA: 20 mM Hepes-NaOH pH 7.5, 5 mM MgCl2, 5% glycerol (buffer J); final 75 mM NaCl, 50 mM KOAc, 0.33 uM Zn(OAc)2, 4 uM ZnCl2; 30 min at 4 C; native 3-8% Tris-acetate PAGE; details: protein: native; tags: none; copies: 1;1;1;1;1;1;1;1;1;1;1;1; label: Alexa Fluor 647 on primer RNA; template DNA, nontemplate DNA and primer RNA

Measured: binding result

B1: DNA/RNA scaffold (EMSA) (mixed)
RNA: UUUUUAUCGAGAGGUAC
DNA 1: CCAAGATGTCAACTCTACCGATAAGCAGACGTACCTCTCGAT
DNA 2: CTGCTTATCGGTAGAGTTGACATCTTGG
binds: all assays above
